Results taken from patent US9364516B2, “Treatment of fibrosis-related disorders using fibronectin binding proteins and polypeptides” (priority 2010, dated 2016).

Tests used:
[1] = tested on: human saphenous veins; assay: Ex vivo cultured human saphenous veins, intimal thickening; details: 15 μM, 14 days culture in 10% FBS/M199
Experimental: Saphenous veins were cut into 0.5 cm segments, and processed immediately (●) or cultured in 10% FBS/M199 containing 15 μM control III-11c peptide (▪) or pUR4 (▴) at 37° C. for 14 days. Veins were fixed, paraffin embedded, sectioned, and stained. Morphometric analysis was performed on six randomly chosen sections using Image-Pro Plus software. The intima/media ratio was determined by dividing intima area by media area. Paired student t-test was used to analyze the data. Data are expressed as mean±S.E.M. *p<0.05.
Human saphenous veins cultured in serum containing media develop intimal hyperplasia after 14 days in culture (Soyombo et al., “Intimal Proliferation in an Organ Culture of Human Saphenous Vein,” Am J Pathol. 137(6):1401-1410 (1990); Angelini et al., “Smooth Muscle Cell Proliferation in Response to Injury in an Organ Culture of Human Saphenous Vein,” Eur J Vasc Surg. 5(1):5-12 (1991); and Slomp et al., “Nature and Origin of the Neointima in Whole Vessel Wall Organ Culture of the Human Saphenous Vein,” Virchows Arch. 428(1):59-67 (1996), which are hereby incorporated by reference in their entirety). This system thus provides an ex vivo model system for studying mechanisms that lead to intimal hyperplasia that has distinct advantages over in vitro culture systems. […]

[2] = tested on: mice; assay: Dimethylnitrosamine (DMN) induced liver fibrosis; type: in vivo, mouse
Experimental: Collagen content in the liver of mice was measured by quantitating hydroxyproline levels (FIG. 17A). Treatment groups were DMN treated mice that were post treated with pUR4 or control III-11C peptide, DMN without peptide, and saline treated control mice. Fibronectin content in the liver of mice was assessed by immunohistochemistry of liver sections using a fibronectin antibody (FIG. 17B). Inflammatory cell infiltration into the liver was assessed by quantitating the CD45 positive cells per unit area (FIG. 17C). Sequential model (FIGS. 17A, 17B); Simultaneous model (FIG. 17C). n=3 in each group.
Liver fibrosis was induced in mice by administration of dimethylnitrosamine (DMN) for 4 weeks as previously described (Yoshida et al., “SOCS1 is a Suppressor of Liver Fibrosis and Hepatitis-Induced Carcinogenesis,” J. Exp. Med. 199:1701-1707 (2004)). This is a well established model of liver fibrosis and some of the key pathological features that develop in DMN induced fibrosis are similar to those seen in humans with liver fibrosis (Wu et al., “Animal Models of Liver Fibrosis,” Scand. J. Gastroenterol. 31:1137-1143 (1996); Jenkins et al., “A Dimethylnitrosamine-Induced Model of Cirrhosis and Portal Hypertension in the Rat,” J. Hepatol. 1:489-499 (1985), which are hereby incorporated by reference in their entirety). pUR4 was either administered for the last 10 days of DMN treatment (simultaneous treatment regimen), or for 14 days following cessation of DMN treatment (sequential treatment regimen). The latter model was performed to determine whether the peptide is effective when administered after fibrosis is established.
Dimethylnitrosamine (DMN) will be used to induce liver injury and fibrosis in mice (10 mg/kg body weight, 3×/week for 4 weeks) as described in Example 16. The experimental groups will include: 1) DMN alone; 2) DMN+pUR4 peptide; and 3) DMN+control peptide. Non DMN-treated control animals will receive i.p. injections of 0.9% saline plus: 4) pUR4; or 5) the control peptide. Two treatment strategies will be used, as described in Example 16. In the simultaneous treatment strategy, peptides will be administered daily during the last 10 days of DMN treatment. This will allow assessment of pUR4 on preventing fibrosis development. In the sequential treatment strategy, DMN will be injected for 4 weeks. Peptides will then be administered daily for 14 days in the absence of DMN. This will allow assessment of pUR4 on preventing fibrosis progression.

[3] = tested on: cell spreading or adhesion to collagen or fibronectin; details: cited from earlier work
[4] = animals treated in the absence of injury for up to 2 weeks
[5] = sequential treatment: 14 days following cessation of DMN, 20 mg/kg/d

B1: pUR4: 49-mer peptide derived from the bacterial F1 adhesin, His tagged, SEQ ID NO:1; class I fibronectin polymerization inhibitor (peptide)
chain: MRGSHHHHHHGSKDQSPLAGESGETEYITEVYGNQQNPVDIDKKLPNETGFSGNMVETEDTKLN
modifications: His tag; Bacterial adhesin derived peptide pUR4
- intima/media ratio [1]: decreases
- adverse effects [2, 4]: do not show any adverse effects
- decrease in the normal levels of ECM fibronectin or collagen I [2, 4]: do not show
- inflammation in the liver ([2]; sequential treatment model): trend towards reduced
- collagen I content in the liver (hydroxyproline) [2, 5]: reduced
- fibronectin content in the liver [2, 5]: reduced
- infiltration of immune cells (CD45) into the liver ([2]; simultaneous treatment regimen): significantly reduced
- inhibition of cell spreading or adhesion to collagen or fibronectin [3]: does not inhibit
